Results reported in IntAct's records for PubMed 16510448.

B1: DNA polymerase delta subunit 4 (Homo sapiens), Q9HCU8 (parent)
chain: MGRKRLITDSYPVVKRREGPAGHSKGELAPELGEEPQPRDEEEAELELLRQFDLAWQYGPCTGITRLQRWCRAKQMGLEPPPEVWQVLKTHPGDPRFQCSLWHLYPL

Variants of: B1
Details: with pcna_human PCNA

| effect of a mutation on the interaction | Variant |
| --- | --- |
| disrupting interaction | MGRKRLATDAAPVVKRREGPAGHSKGELAPELGEEPQPRDEEEAELELLRQFDLAWQYGPCTGITRLQRWCRAKQMGLEPPPEVWQVLKTHPGDPRFQCSLWHLYPL [I7A;S10A;Y11A] |
